Source: US20060110492A1, “Preparation and food product comprising an active phytase” (priority 2003, published 2006)

Tests used:
[1] = Mineral partitioning in ground Cruesli with added FePA and/or phytase (AES-ICP); type: biochemical; settings: phytase 115 FTU/g
Protocol: 0.1 g of this preparation was added to 20 g ground Cruesli™ (Quaker Foods & Beverages). […] […] The suspension was incubated at 37° C. with constant stirring for 4 h, and subsequently centrifuged for 20 minutes at 16000 rpm and 4° C. After centrifugation, the sediment and the supernatant fraction were separated, weighed and analyzed by AES-ICP to determine their phosphorus, calcium, magnesium, zinc and iron content. Control suspensions without phytase activity (but with the FePA), and without both FePA and phytase underwent the same procedure.

[2] = Fe retained in sedimented fraction of suspended salt (AES/ICP); type: physicochemical
Protocol: The prepared FePA as described in Example 3 was suspended either at pH 2 or at pH 5,5 in a concentration of 35.8 g per liter. After sedimentation, the supernatant fraction of both suspensions was analysed by AES/ICP.
Subsequently, the suspension of pH=2 was centrifuged 10 minutes at 6000 rpm at room temperature. The pellet was dissolved in 15 g concentrated […] and the solution was analyzed by AES/ICP.
This procedure was repeated with iron phosphate. This salt was prepared in the same way as the preparation of the essential cation phytates: the cation was dissolved as its sulfate, and subsequently precipitated with a basic solution of sodium phosphate. The precipitate was collected and washed.

[3] = Phytase activity on different substrates (method of Engelen et al.); type: biochemical; settings: 37° C.; for Activity: incubation 60 minutes
Protocol: The activity of Aspergillus niger phytase (NATUPHOS™) was tested against NaPA and CaPA. The influence of the metal in the phytate source on the phytase activity (37° C. using an incubation time of 60 minutes) was investigated. The rate of phytate hydrolysis was determined using the analytical method described by Engelen et al., J. AOAC Int. 77:760-764 (1994).

[4] = Mineral partitioning in ground Cruesli fractions with added phytase activity (AES-ICP); type: biochemical
Protocol: Various phytase preparations are commercially available. We have used the liquid formulation NATUPHOS™ 5000 L (DSM, Delft, The Netherlands). Again we used ground Cruesli™ (Quaker Foods & Beverages) as model phytate-containing foodstuff. About 20 grams ground Cruesli™ was suspended in two separate lots of 40 g acetate buffer (0.25 M, pH 5.5, 37° C.). To one of the lots, 1.2 g of the phytase preparation was added, to achieve a final activity of 100 FTU/g. The suspensions were incubated at 37° C. with constant stirring for 1,5 h, and subsequently centrifuged for 20 minutes at 16000 rpm and 4° C. After centrifugation the sediment and the supernatant fraction were separated, weighed and analyzed by AES-ICP to determine their phosphorus, calcium, magnesium and zinc content.
The procedure for this example was the same as for Example 6, but a lower final phytase activity in the incubation was used: 1 FTU/g, instead of 100. The incubation time was lowered to 1 hour.
The procedure for this example was the same as for Example 7, but at a lower pH value and a longer incubation time. This was done to simulate the conditions existant in the stomach. We looked specifically at iron, because iron salts are believed to be particularly poorly soluble at higher pH values, making breakdown in the stomach an attractive option. Iron concentrations were determined by AES-ICP.

[5] = characteristic stomach pH-values; cited from earlier work
[6] = incubation pH 2, 37° C., 4 h, where added: Fe-phytate 450 mg/kg
[7] = incubation pH <1, where added: Fe-phytate 450 mg/kg
[8] = pH 2, 37° C., 2 h, phytase 1 FTU/g
[9] = pH 5.5, 37° C., 1 h, phytase 1 FTU/g
[10] = pH 5.5, 37° C., 1.5 h, phytase 100 FTU/g
[11] = incubation pH 5.5, where added: Fe-phytate 450 mg/kg

Iron-phytate [Fe-phytate]
Percentage of mineral in supernatant fraction, Iron [1, 6]: 10%
Percentage of mineral in supernatant fraction, Phosphorus [1, 6]: 9.6%
Percentage of mineral in supernatant fraction, Iron [1, 7]: 23%
Percentage of mineral in supernatant fraction, Phosphorus [1, 7]: 68%
Fe retained in the sedimented fraction ([2]; suspended at pH 2): more than 90%
Fe retained in the sedimented fraction ([2]; suspended at pH 5.5): more than 90%

iron phosphate [reference compound]
Fe retained in the sedimented fraction ([2]; suspended at pH 2): less than 10%
Fe retained in the sedimented fraction ([2]; suspended at pH 5.5): more than 90%

B1: phytase: Phytase from A. niger commercialized under the trade name NATUPHOS; liquid (5000 L) and granulated (5000 G) formulations, 5000 FTU/g (protein, UniProt P34752 24-467, looked up)
Phytase A: ASRNQSSCDTVDQGYQCFSETSHLWGQYAPFFSLANESVISPEVPAGCRVTFAQVLSRHGARYPTDSKGKKYSALIEEIQQNATTFDGKYAFLKTYNYSLGADDLTPFGEQELVNSGIKFYQRYESLTRNIVPFIRSSGSSRVIASGKKFIEGFQSTKLKDPRAQPGQSSPKIDVVISEASSSNNTLDPGTCTVFEDSELADTVEANFTATFVPSIRQRLENDLSGVTLTDTEVTYLMDMCSFDTISTSTVDTKLSPFCDLFTHDEWINYDYLQSLKKYYGHGAGNPLGPTQGVGYANELIARLTHSPVHDDTSSNHTLDSSPATFPLNSTLYADFSHDNGIISILFALGLYNGTKPLSTTTVENITQTDGFSSAWTVPFASRLYVEMMQCQAEQEPLVRVLVNDRVVPLHGCPVDALGRCTRDSFVRGLSFARSGGDWAECFA
activity of phytase on sodium and on calcium phytate compared ([3]; 60 minutes): equivalent
Activity ([3]; substrate 4.6 mM calcium phytate): 3.12 * 10^5 FTU/g
Activity ([3]; substrate 5.1 mM calcium phytate): 3.07 * 10^5 FTU/g
Activity ([3]; substrate 5.1 mM sodium phytate): 3.06 * 10^5 FTU/g
Activity ([3]; substrate 5.6 mM calcium phytate): 3.10 * 10^5 FTU/g
% of mineral in supernatant fraction, Iron [4, 8]: 14%
% of mineral in supernatant fraction, Phosphorus [4, 8]: 33%
% of mineral in supernatant fraction, Calcium [4, 9]: 30%
% of mineral in supernatant fraction, Magnesium [4, 9]: 36%
% of mineral in supernatant fraction, Phosphorus [4, 9]: 30%
% of mineral in supernatant fraction, Zinc [4, 9]: 22%
% of mineral in supernatant fraction, Calcium [4, 10]: 40%
% of mineral in supernatant fraction, Magnesium [4, 10]: 49%
% of mineral in supernatant fraction, Phosphorus [4, 10]: 42%
% of mineral in supernatant fraction, Zinc [4, 10]: 19%
Percentage of mineral in supernatant fraction, Iron [1, 11]: 6%
Percentage of mineral in supernatant fraction, Phosphorus [1, 11]: 45%
residual activity, % of optimal activity [5]: about 50%
